B1: Catenin beta-1 (Homo sapiens), P35222 (parent)
chain: MATQADLMELDMAMEPDRKAAVSHWQQQSYLDSGIHSGATTTAPSLSGKGNPEEEDVDTSQVLYEWEQGFSQSFTQEQVADIDGQYAMTRAQRVRAAMFPETLDEGMQIPSTQFDAAHPTNVQRLAEPSQMLKHAVVNLINYQDDAELATRAIPELTKLLNDEDQVVVNKAAVMVHQLSKKEASRHAIMRSPQMVSAIVRTMQNTNDVETARCTAGTLHNLSHHREGLLAIFKSGGIPALVKMLGSPVDSVLFYAITTLHNLLLHQEGAKMAVRLAGGLQKMVALLNKTNVKFLAITTDCLQILAYGNQESKLIILASGGPQALVNIMRTYTYEKLLWTTSRVLKVLSVCSSNKPAIVEAGGMQALGLHLTDPSQRLVQNCLWTLRNLSDAATKQEGMEGLLGTLVQLLGSDDINVVTCAAGILSNLTCNNYKNKMMVCQVGGIEALVRTVLRAGDREDITEPAICALRHLTSRHQEAEMAQNAVRLHYGLPVVVKLLHPPSHWPLIKATVGLIRNLALCPANHAPLREQGAIPRLVQLLVRAHQDTQRRTSMGGTQQQFVEGVRMEEIVEGCTGALHILARDVHNRIVIRGLNTIPLFVQLLYSPIENIQRVAAGVLCELAQDKEAAEAIEAEGATAPLTELLHSRNEGVATYAAAVLFRMSEDKPQDYKKRLSVELTSSLFRTEPMAWNETADLGLDIGAQGEPLGYRQDDPSYRSFHSGGYGQDALGMDPMMEHEMGGHHPGADYPVDGLPDLGHAQDLMDGLPPGDSNQLAWFDTDL

Variants of: B1
Details: with ron_mouse Mst1r

effect of a mutation on the interaction	Variant
disrupting interaction	Y654F;Y670F

— IntAct's records for PubMed 21423209
